Experimental data taken from US20070172470A1, “Phosphatase regulation of nucleic acid transcription” (The Regents of the University of California, priority 2003, published 2007).

T1: SCP1 (Homo sapiens, UniProt Q9GZU7)
T1 construct: GST (N, cleaved yes); made in house
T1 sequence (Q9GZU7 1-260 isoform Q9GZU7-2): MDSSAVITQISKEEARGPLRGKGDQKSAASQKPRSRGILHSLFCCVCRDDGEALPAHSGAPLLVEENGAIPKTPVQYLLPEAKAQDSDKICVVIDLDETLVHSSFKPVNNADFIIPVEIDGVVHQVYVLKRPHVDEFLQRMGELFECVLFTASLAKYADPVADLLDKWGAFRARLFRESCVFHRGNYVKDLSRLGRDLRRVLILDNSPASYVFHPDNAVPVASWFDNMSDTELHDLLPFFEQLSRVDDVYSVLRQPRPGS

T2: GST-SCP1 (Homo sapiens, UniProt Q9GZU7)
T2 construct: made in house
T2 sequence (Q9GZU7 1-261): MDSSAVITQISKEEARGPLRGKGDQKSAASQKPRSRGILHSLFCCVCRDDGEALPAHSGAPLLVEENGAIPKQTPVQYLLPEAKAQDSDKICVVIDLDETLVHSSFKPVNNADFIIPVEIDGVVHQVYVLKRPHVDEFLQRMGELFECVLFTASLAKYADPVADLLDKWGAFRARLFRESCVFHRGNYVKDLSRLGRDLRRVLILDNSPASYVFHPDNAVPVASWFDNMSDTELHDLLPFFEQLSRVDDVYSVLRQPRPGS
T2 sequence (P35269 1-517 partner): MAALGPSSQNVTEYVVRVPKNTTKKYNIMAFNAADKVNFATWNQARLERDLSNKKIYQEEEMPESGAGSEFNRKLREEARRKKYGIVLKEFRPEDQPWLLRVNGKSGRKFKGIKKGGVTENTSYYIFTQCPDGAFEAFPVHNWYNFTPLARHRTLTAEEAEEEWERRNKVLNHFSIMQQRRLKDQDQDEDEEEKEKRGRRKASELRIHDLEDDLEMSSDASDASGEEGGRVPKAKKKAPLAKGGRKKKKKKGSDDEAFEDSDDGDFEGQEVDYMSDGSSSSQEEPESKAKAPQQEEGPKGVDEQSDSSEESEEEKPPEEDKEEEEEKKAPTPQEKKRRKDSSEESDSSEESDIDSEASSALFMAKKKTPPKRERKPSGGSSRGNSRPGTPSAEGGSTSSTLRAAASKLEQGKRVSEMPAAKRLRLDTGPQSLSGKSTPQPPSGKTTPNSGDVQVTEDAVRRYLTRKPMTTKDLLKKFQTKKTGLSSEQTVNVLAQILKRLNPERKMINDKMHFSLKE


Columns and labels:
[1] = format: biochemical; details: PNθP as substrate
RNAP IIO = molecular target: T3, RNAP IIO (Bos taurus, UniProt G3MZY8); test: CTD phosphatase assay with RNAP IIO as substrate; format: biochemical, calf; details: substrates prepared by MAPK2/ERK2
T3 construct: Calf thymus RNAP IIA was purified; from tissue; host or cells: calf thymus
Method: FIGS. 2C and 2D show a CTD phosphatase assay of FCP1 and SCP1 on GST-CTDo and RNAP IIO prepared by MAPK2/ERK2. Increasing amounts of FCP1 or GST-SCP1 214 were assayed in the presence of 75 fmol GST-CTDo (lanes 1-6), 75 fmol RNAP IIO (lanes 7-12), or 75 fmol GST-CTDo and 75. fmol RNAP IIO (lanes 13-18). Both GST-CTDo and RNAP IIO substrates were prepared by the in vitro phosphorylation of CKII-labeled GST-CTDa or RNAP IIA by MAPK2/ERK2. All reactions were carried out in the presence of 7 pmol RAP74. CTD dephosphorylation of both GST-CTDo and RNAP IIO is shown by the increase in mobility of GST-CTDo to GST-CTDa and subunit IIo to IIa, respectively. The difference in the intensity of radiolabeled GST-CTDoand that of radiolabeled subunit IIo is not a reflection of a difference in the amount of substrates present, but of the higher efficiency with which CKII incorporates radiolabeled phosphates onto the most C-terminal serine of GST-CTDa compared to subunit. IIa.
Increasing amounts of GST-SCP1 214 were assayed in the presence of 3.7 fmol RNAP IIO prepared by CTDK1/CTDK2, TFIIH, P-TEFb, MAPK2/ERK2 and Cdc2 kinase. All reactions were carried out in-the presence of 7 pmol. RAP74. CTD dephosphorylation of RNAP IIO isozymes. by qSTSCP1 214 is shown by an increase in mobility of subunit IIo to that of IIa. The results are summarized in the graph showing the percent of RNAP IIO remaining as a function of increasing SCP1 concentrations.
Preparation and Purification of ^32P-RNAP IIO Isozymess and ^32P-GST-CTDo: Calf thymus RNAP IIA was purified by the method of Hodo and Blatti (30) with modifications as described by Kang and Dahmus (31). Specific isozymes of ^32p-labeled RNAP IIO were prepared by phosphorylation at the most C-terminal serine (CKII site) in the largest subunit of purified RNAP IIA with recombinant CKII and […], followed by CTD phosphorylation in the presence of 2 mM ATP with either purified CTDK1/CTDK2, TFIIH, P-TEFb, recombinant MAPK2/ERK2 or recombinant Cdc2 kinase. The RNAP IIO isozymes were individually purified over a DE53 column with a step elution of 500 mM KCl (28). Because only the most C-terminal serine is labeled with ^32p and lies outside. the consensus repeat, dephosphorylation by CTD phosphatase results in an electrophoretic mobility shift in SDS-PAGE of subunit IIo to the position of subunit IIa without the loss of label. Similarly, ^32P-labeled GST-CTDo was prepared from GST-CTDa by CKII followed by MAPK2/ERK2. GST-CTDo was purified over a glutathione-agarose column with a step elution of 15 mM glutathione.
(§1) CTD phosphatase assays utilizing RNAP IIO and GST-CTDo as substrate were performed as described previously (32) with minor modifications. Reactions were performed in 20 μl of CTD phosphatase buffer (50 mM Tris-HCl, pH 7.9, 10 mM MgCl2, 20% glycerol, 0.025% Tween 80, 0.1 mM EDTA, 5 mM DTT) in the presence of 20 mM KCl. Each reaction contained specified amounts of GST-CTDo and/or RNAP IIO and was carried out in the presence of 7 pmol RAP74. Reactions were initiated by the addition of FCP1 or SCP1 and incubated at 30° C. for 30 minutes. Assays were terminated by the addition of 5× Laemmli buffer, and RNAP II subunits and GST-CTD were resolved on a 5% SDS-PAGE gel. The gel images were developed by autoradiography and scanned by Molecular Dynamics Image Scanner Storm 860 in the phosphor screen mode. Data were quantitatively analyzed by ImageQuant software.

[2] = system: ElALuc, pGL3-Luc and Gal4-TATA-Luc constructs; test: Luciferase reporter assay, basal promoter activity; format: cell-based, human; details: ElALuc, pGL3-Luc and Gal4-TATA-Luc constructs
Text: (§2) Gal4-DNA binding domain-SCP1 fusion protein expression plasmids-were cotransfected in HEK293 cells with a Gal 4-TKLuc reporter plasmid and luciferase gene expression quantitated. In all panels, results of triplicate transfections are shown +/− SD. Data is expressed as fold-activation experimental/control). […] The indicated amounts of SCP1 or mutant SCP1 expression plasmids were cotransfected in HEK293 cells along with Gal 4-VP16 expression and Gal 4-TK-Luc reporter plasmids and luciferase activity was quantitated. […] The indicated receptor expression plasmids were cotransfected with their cognate promoter-reporter plasmids with or without SCP1 or mutant SCP1 expression plasmids. Cells were treated or untreated with receptor-specific ligands as described infra. […] The indicated concentrations of SCP1 and mutant SCP1 expression plasmids were cotransfected with LMX1 and E47 expression plasmids and the rat insulin 1 promoter-luciferase reporter gene. Luciferase activity was measured as described.
(§3) Tissue Culture and Transfections: Human 293, COS7 and CV1 cells were grown at 37° C. in DMEM supplemented with 10% normal calf serum (BRL). Sub-confluent cells were transfected in 6 well tissue culture dishes using Effectene (Qiagen) according to the manufacturer's instructions. Reporter and activator plasmids (100 ng each) and Flag SCP1 (80 ng) or its mutant were used per well. […]

[3] = system: Gal 4-TK-Luc reporter stimulated by Gal 4-VP16; test: Luciferase reporter assay, Gal 4-VP16 stimulated gene expression; format: cell-based, human; details: HEK293 cells
Text: as §2, §3

[4] = system: T3 receptor activity on DR+4 TRE-TK-Luc reporter; test: Luciferase reporter assay, ligand-activated T3 receptor; format: cell-based, human; details: 100 nM T3, DR+4 TRE-TK-Luc
Text: as §2, §3

[5] = system: glucocorticoid receptor activity on GRE-TK-Luc construct; test: Luciferase reporter assay, dexamethasone-stimulated glucocorticoid receptor; format: cell-based, human; details: 100 nM dexamethasone
Text: as §2, §3

[6] = system: PPARγ receptor activity on PPARγ promoter response element; test: Luciferase reporter assay, ligand-activated PPARγ receptor; format: cell-based, human
Text: as §2, §3

[7] = system: P19 mouse embryonic stem cells; test: Neuronal differentiation of P19 cells; format: cell-based; details: clonal P19 line, retinoic acid, selective medium
Method: P19 cells, C, differentiated GFP expressing P19 cells; D, differentiated SCP1-expressing P19 cells; F, differentiated REST/NRSF-expressing P19 cells. Numbers of NLC per field are shown. *p=0.001 compared to WT 19 cells; **p=0.008 compared to WT P19 cell using student's t-test.
P19 stably expressing REST/NRSF.
These cell lines were maintained in α-MEM/10%FBS with […] G418. To induce neuronal differentiation, P19 cells were allowed to aggregate in bacterial grade petri-dishes (Fisher) at a seeding density of 1×10^5cells/ml in the presence of 1×10^−6M all-trans retinoic acid. After 3 days of aggregation, cells were dissociated into single cells by 0.05% trypsin-0.53 mM EDTA (Gibco). Trypsin was removed by centrifugation and the cells were plated in 6 cm tissue culture dishes (Nunc). at a density of 1×10^5 cells/cm^2 in Neurobasal medium/N2 supplement (Invitrogen) in the presence or absence of 1 μg/ml fibronectin (Invitrogen). The cells were cultured for 5 days after which average cell numbers/field were determined. Cells were either lysed to prepare total RNA (Rneasy kit, Qiagen) or stained with TuJ1 antibody (Babco).
For immunostaining, cells were fixed for 10 mins with 4% paraformaldehyde. TuJ1 antibody was used at 1:2000 and secondary antibody used was FITC-conjuagated anti-mouse (1:3000).

SCP1 = molecular target: T1, SCP1; test: Effect of RAP74 on CTD phosphatase activity of SCP1; format: biochemical; details: 7 pmol RAP74, 14.4 fmol RNAP IIO prepared by TFIIH
Method: Increasing amounts of the indicated forms of SCP1 and SCP2 were assayed in the presence of 14.4 fmol RNAP. IIO prepared by TFIIH. Reactions were carried out in the presence and in the absence of 7 pmol RAP74.
as §1

GST-SCP1 = molecular target: T2, GST-SCP1; test: Binding of RAP74 to GST-SCP1; details: not to GST

Row | Molecule | phosphatase activity [1] | CTD phosphatase activity on GST-CTDo and RNAP IIO (RNAP IIO) | increase of luciferase activity [2] | enhancement of Gal 4-VP16 stimulated activity [3] | ligand-activated T3 receptor activity [4] | dexamethasone-stimulated glucocorticoid receptor activity [5] | ligand-activated PPARγ receptor activity [6] | increase of the extent of precursor differentiation into neurons [7] | shift of the dose response curve for SCP1 catalyzed dephosphorylation of RNAP IIO to lower concentration (SCP1) | binding to GST-SCP1 (GST-SCP1)
1 | mutant SCP1: D96E, D98N phosphatase-inactive dominant negative mutant of SCP1 261, SEQ ID NO:10 (protein, Drosophila) MDSSAVITQISKEEARGPLRGKGDQKSAASQKPRSRGILHSLFCCVCRDDGEALPAHSGAPLLVEENGAIPKTPVQYLLPEAKAQDSDKICVVIELNETLVHSSFKPVNNADFIIPVEIDGVVHQVYVLKRPHVDEFLQRMGELFECVLFTASLAKYADPVADLLDKWGAFRARLFRESCVFHRGNYVKDLSRLGRDLRRVLILDNSPASYVFHPDNAVPVASWFDNMSDTELHDLLPFFEQLSRVDDVYSVLRQPRPGS | inactive | lacked activity on either substrate | 1.5- to 6 fold | about 2 fold | enhanced | significantly enhanced | enhanced | > 2 fold |  | 
2 | RAP74: RAP74 subunit of TFIIF (protein) MAALGPSSQNVTEYVVRVPKNTTKKYNIMAFNAADKVNFATWNQARLERDLSNKKIYQEEEMPESGAGSEFNRKLREEARRKKYGIVLKEFRPEDQPWLLRVNGKSGRKFKGIKKGGVTENTSYYIFTQCPDGAFEAFPVHNWYNFTPLARHRTLTAEEAEEEWERRNKVLNHFSIMQQRRLKDQDQDEDEEEKEKRGRRKASELRIHDLEDDLEMSSDASDASGEEGGRVPKAKKKAPLAKGGRKKKKKKGSDDEAFEDSDDGDFEGQEVDYMSDGSSSSQEEPESKAKAPQQEEGPKGVDEQSDSSEESEEEKPPEEDKEEEEEKKAPTPQEKKRRKDSSEESDSSEESDIDSEASSALFMAKKKTPPKRERKPSGGSSRGNSRPGTPSAEGGSTSSTLRAAASKLEQGKRVSEMPAAKRLRLDTGPQSLSGKSTPQPPSGKTTPNSGDVQVTEDAVRRYLTRKPMTTKDLLKKFQTKKTGLSSEQTVNVLAQILKRLNPERKMINDKMHFSLKE |  |  |  |  |  |  |  |  | approximately 10 fold | bound directly
